Assay [1] concerns the target human CACNG1, cell surface-expressed (human) (UniProt Q06432).
Assay [2] shares this target. The source holds these as a separate data set.
Assay [3] has the same target. This is another data set of the same source.

Chain of human CACNG1, cell surface-expressed (human) (Q06432 whole entry): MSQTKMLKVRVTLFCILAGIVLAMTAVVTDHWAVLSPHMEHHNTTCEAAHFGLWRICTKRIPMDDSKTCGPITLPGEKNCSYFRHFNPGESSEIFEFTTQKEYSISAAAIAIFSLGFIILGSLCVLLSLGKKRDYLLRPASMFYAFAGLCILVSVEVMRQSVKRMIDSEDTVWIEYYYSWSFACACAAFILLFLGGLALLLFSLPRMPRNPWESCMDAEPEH

B1: REGN14571-M3004 (antibody, from a related filing, V domains shown, part only)
VH: QVQLQESGPGLVKPSETLSLTCTVSGDSINNYYWTWLRQPPGKGLEWIGYIYYSGSANYNPSLKSRVTISVDTSKNQFSLKLNSVTAADTAVYYCARGAVKYFRHWGQGTLVTVSS
VL: EIVLTQSPGTLSLSPGERATLSCRASQTINHNNLAWYQQRPGQAPRLLIYGASNRATAIPDRFSGSGSGTDFTLTISRLEPEDFEVYSCQQYGSLPLTFGGGTKVEIKR
The molecule B1 had an EC50; androgen receptor luciferase reporter (RLU), hCACNG1.AR.Luc LNCaP cells, 72 hours in assay [1] of 5.44 nM. For the same molecule, the EC50; androgen receptor luciferase reporter (RLU), hCACNG1.AR.Luc LNCaP cells, 24 hours in assay [2] is 7.83 nM. Also, the EC50; androgen receptor luciferase reporter (RLU), hCACNG1.AR.Luc LNCaP cells, 48 hours in assay [3] came out at 6.95 nM.

The values above are taken from patent publication US20260234660A1, “TREATMENT OF MUSCLE RELATED DISORDERS WITH ANTI-HUMAN CACNG1 ANTIBODIES” (Regeneron Pharmaceuticals, Inc., priority 2023, published 2026).
